Experiment [1] addresses T1, recombinant soluble HCV E1 protein (hepatitis C virus).
T1 construct: It is not the cell-surface E1-myc construct (aa 174-359 of H77c) that was used for phage selection; also called recombinant E1; soluble E1 protein
The experiment in a line: ELISA, recombinant E1 captured on GNA lectin; crude periplasmic Fab.

The target of experiment [2] is T2, recombinant E1/E2 heterodimer protein (genotype 1a) (hepatitis C virus genotype 1a, UniProt P26664 192-383; P26664 384-746, limits assumed).
T2 construct: also called E1/E2 in complex; recombinant E1/E2 antigen
T2 sequence (P26664 192-383 limits assumed, chain 1 of 2): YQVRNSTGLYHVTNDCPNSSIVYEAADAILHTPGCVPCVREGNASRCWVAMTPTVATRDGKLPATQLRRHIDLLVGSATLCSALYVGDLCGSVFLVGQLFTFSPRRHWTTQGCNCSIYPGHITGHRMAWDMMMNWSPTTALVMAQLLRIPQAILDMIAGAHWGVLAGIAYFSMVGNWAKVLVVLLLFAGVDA
T2 sequence (P26664 384-746 limits assumed, chain 2 of 2): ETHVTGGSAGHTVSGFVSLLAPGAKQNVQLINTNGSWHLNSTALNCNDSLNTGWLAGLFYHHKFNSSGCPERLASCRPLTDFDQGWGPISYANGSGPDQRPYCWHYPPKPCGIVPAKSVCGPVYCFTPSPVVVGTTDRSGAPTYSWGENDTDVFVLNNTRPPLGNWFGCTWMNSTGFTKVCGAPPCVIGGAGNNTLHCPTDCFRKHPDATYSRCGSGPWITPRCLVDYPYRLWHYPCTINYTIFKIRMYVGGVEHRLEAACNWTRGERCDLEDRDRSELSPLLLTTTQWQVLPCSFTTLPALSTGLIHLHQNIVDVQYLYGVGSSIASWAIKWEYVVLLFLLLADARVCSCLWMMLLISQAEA
The experiment in a line: ELISA, E1/E2 heterodimer coated; crude periplasmic Fab.

6 molecules from patent US20040208887A1 (MOLECULES OF MAN, published 2004) can be followed below.

B1: Fab clone 2b-4 (Fab, V domains shown)
VH: EVQLLESGGEVKKPGSSVKVSCKASGGPFSSYAIHWVRQAPGQGLEWMGAIIPFLGRAKYAQKFEGRVTITADGSMSTAYMEVSSLRSDDTAMYYCARDRGELLLRMDVWGQGTAVTVSS
VL: AELTQSPAFMSATPGDKVNISCKASQDIDDDMNWYQQKPGEAAIFIIQEATTLVPGIPPRFSGSGYGTDFTLTINNIESEDAAYYFCLQHDNFPLTFGQGTKVEIK
notes: Human Fab (gamma1 Fd + kappa), crude periplasmic preparation, approx. 0.68 ug Fab/ml
B1: the results for the OD405 nm in experiment [1] and in experiment [2] were 0.11 OD405 nm and 0.09 OD405 nm, respectively.

B2: Fab clone 2b-7 (Fab, V domains shown)
VH: VQLLEQSGAEVKKPGESLKISCRASGYSFSLFWVAWVRQMPGQGLEWMAIIYPGDSDTTYSPSFEGQVNVSVDKPISTAYLQWSSLKASDTAMYYCARRRSSDRRDAFDIWGPGTMVTVSS
VL: B1 VL
notes: Human Fab (gamma1 Fd + kappa), crude periplasmic preparation, approx. 0.54 ug Fab/ml
Consider B2, for which the OD405 nm is 0.47 OD405 nm in experiment [1] and 0.32 OD405 nm in experiment [2].

B3: Fab clone 2b-10 (Fab, V domains shown)
VH: EVQLLESGGGVVQPGRSLKLSCTASTFTFTNYAMHWVRQAPGKGLEWVALISNDGSKTYYTDSVRGRFTISRDNSKNTLFLQMNSLRTEDTAVYHCARVKLQGSFNVYYYYGLDVWGQGTTVTVSS
VL: AELTQSPLSLPVTPGEPASISCRSSQSLLHSDGYNYFDWYLQKPGQSPQLLIYLGSNRASGVPDRFSGSGSDTDFTLKISRVEAEDVGVYYCMQTLQTLTFGGGTKLEIK
notes: Human Fab (gamma1 Fd + kappa), crude periplasmic preparation, approx. >1.0 ug Fab/ml
For the molecule B3, the OD405 nm in experiment [1] was found to be 0.48 OD405 nm; in experiment [2] it was 0.11 OD405 nm.

B4: Fab clone 2b-3 (Fab, V domains shown)
VH: EVQLLESGAEVKKPGASVTVSCKASGYSFSDYYIHWVRQAPGQGLEWMGIINPSAGTTTYKQKFQHRVTLTRDTSTNTAYMKLYNLTPDDTAIFFCARGSGGSRSEYDYWGQGTLVTVSS
VL: AELTQSPSSLSASVGDGVTITCRASQSISTYLNWYQQKPGKAPKLLMYAASTLQSGVPSRFSGSGSGTDFTLTISSLQPEDFAAYYCQQARSFPYTFGQGTRLEIR
notes: Human Fab (gamma1 Fd + kappa), crude periplasmic preparation, approx. 1.0 ug Fab/ml
Consider B4, for which the OD405 nm amounted to 1.18 OD405 nm in experiment [1] and 0.19 OD405 nm in experiment [2].

B5: Fab clone 1:4 (Fab, V domains shown)
VH: EVQLLESGPGLVKPSETLSLTCTVSNGSMSNYCWSWIRQSPGKGLEWIGYIYYSGSTSYNPSLRSRVALLVDTSKNQFSLKLTSVTTADTAVYYCARDLSARGGTRNRDALDVWGQGTQVTVSA
VL: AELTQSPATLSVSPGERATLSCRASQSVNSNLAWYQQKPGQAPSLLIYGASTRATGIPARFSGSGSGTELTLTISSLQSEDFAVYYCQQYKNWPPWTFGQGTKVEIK
notes: Human Fab (gamma1 Fd + kappa), crude periplasmic preparation, approx. 0.01 ug Fab/ml
Take B5: the OD405 nm in experiment [1] was 0.78 OD405 nm; in experiment [2], 0.67 OD405 nm.

B6: Fab clone 2b-5 (Fab, V domains shown)
VH: EVQLLESGGGVVQPGRSLRLSCAASGFTLSTYAMHWVRQAPGRGLEWVAVISYDGDHKFYADSMKGRFAISRDTSTNTLYLEVNSLKIEDTAVYYCARDRDRRGGYVFSTTGGLDSWGQGTLVTVSS
VL: AELTQSPLSLAVTPGEPASISCRTSQSLLHSNGYTYLDWYLQKPGQSPQLLIYLASNRASGVPDRFSGSGSGTDFTLEISRVEAEDVGVYYCMQPLQTPVTFGQGTKVEVK
notes: as for B3
Take B6: the OD405 nm in experiment [1] amounted to 2.21 OD405 nm; in experiment [2], 1.4 OD405 nm.
